Assay: soluble on expression in E. coli; label from the status in PepcDB or PDB records

Row | Sequence | soluble on expression in E. coli
1 | MGSDKIHHHHHHMTDLAPILAEADKALPQSLDRLFDLVRIASISTDPAYKADCRKAAEWLAQELKGLGFNASVRDTPGHPMVVGHHDADRPDAPHVLFYGHYDVQPVDPLDLWENDPFEPAIKEIEPGRKVITGRGTSDDKGQLMTFVEACRAYKAVHGGLPIKITILFEGEEESGSPSLKPFLAANEDELKCDFALVCDTGMWDRETPAIAAALRGLVGEEVTVTAADRDLHSGLFGGAAANPIHILAKVLADLHDETGRVTIDGFYEGVEETPVNIKASWEKLGRTADKFLNDVGLSIPSGETGRSVLELTWARPTAEVNGITGGYTGEGFKTVIASKASAKVSFRLVGEQDPAKIRENFRAFVKARIPGDCSVEFHEHGASPAIQLPYDSPFLTKAKSALSDEWPKPAEVIGMGGSIPIVGDFQTMLGMDSLLVGFGLVDDRIHSPNEKYELESFHKGIRSWIRILDALAH | not soluble
2 | GPGSMVVAVYPGTFDPLTRGHEDLVRRASSIFDTLVVGVADSRAKKPFFSLEERLKIANEVLGHYPNVKVMGFTGLLKDFVRANDARVIVRGLRAVSDFEYEFQMAGMNRYLLPDVETMFMTPSDQYQFISGTIVREIAQLGGDVSKFVFPSVEKWLTEKVAAMAQGPSA | soluble
3 | MSLSLREEALHLHKVNQGKLESKSKVEVRNAKDLSLAYSPGVAEPCKDIHEDINKVYDYTMKGNMVAVVTDGTAVLGLGNIGPEAALPVMEGKAVLFKSFAGVDAFPIALNTNDVDKIVETVKLLEPTFGGVNLEDIAAPNCFIIEERLKKETNIPVFHDDQHGTAIVTVAGLVNALKLSGKSMSSIKVVANGAGAAGIAIIKLLHHYGVRDIVMCDSKGAIYEGRPNGMNDVKNEVAKFTNQDRKDGSLKDVIVDADVFIGVSVAGALTKEMVQSMAKDPIIFAMANPNPEIMPEDAREAGASVVGTGRSDFPNQVNNVLAFPGIFRGALDVRATHINEEMKIAAVEAIASLVSEDELSADYVIPAPFDKRVAPAVAKAVAKAAMETGVARITVDPEEVAEKTRKLTIIGEEGHHHHHH | soluble
4 | MFFLEHGKVRTFLTPTLRCPMEKTTTQELLAQAEKICAQRNVRLTPQRLEVLRLMSLQDGAISAYDLLDLLREAEPQAKPPTVYRALDFLLEQGFVHKVESTNSYVLCHLFDQPTHTSAMFICDRCGAVKEECAEGVEDIMHTLAAKMGFALRHNVIEAHGLCAACVEVEACRHPEQCQHDHSVQVKKKPR | not soluble
5 | MDGKRVWLSDDELTRFIEQAETPHQRLAFLLAGRVGLRRSEIIEVCPQDLVDGPTGDHIRVWESYAKRDKYREPPVPQEVVTIAETLAYQQDDDEPLLDVAGSTVYRWVRRAADELEEETGDRGWQYLDVHDLRRTWGTYLLEQGVIPSVVMSFGGWEDWDTFRKHYLGLEHHHHHH | not soluble
6 | DIELTQSPASLSVATGEKVTIRCMTSTDIDDDMNWYQQKPGEPPKFLISEGNTLRPGVPSRFSSSGTGTDFVFTIENTLSEDVGDYYCLQSFNVPLTFGCGTKLEIK | soluble
7 | YTVEPVQDGERSVTLRRAGGTPLVAAMYHLPAAGSPDFVGLDLAATILADTPSGRLYHALVPTKLASGVFGFTMDQLDPGLAMFGAQLQPGMDQDKALQTLTATLESLSSKPFSQEELERARSKWLTAWQQTYADPEKVGVALSEAIASGDWRLFFLQRDRVRDAKLDDVQRAAVAYLVRSNRTEGRYIPTEKPQRAPLAQRADLAAV | soluble
8 | GAMGSYDWLPRLSKENFNAAPVTCFPHAPGCEVWDNLGVGMKVEVENTDCDSIEVIQPGQTPTSFWVATILEIKGYKALMSYEGFDTDSHDFWVNLCNAEVHSVGWCATRGKPLIPPRTIEHKYKDWKDFLVGRLSGARTLPSNFYNKINDSLQSRFRLGLNLECVDKDRISQVRLATVTKIVGDRLFLRYFDSDDGFWCHEDSPIIHPVGWATTVGHNLAAPQDYLERMLAGREAMIEVHEDDATIELFKMNFTFDEYYSDGKTNSFVEGMKLEAVDPLNLSSICPATVMAVLKFGYMMIRIDSYQPDASGSDWFCYHEKSPCIFPAGFCSVNNISVTPPNGYDSRTFTWEGYLSDTGAVAAGQHLFHDIIPDHGFEVGMSLECADLMDPRLVCVATVARVVGRLLKVHFDGWTDEYDQWLDCESADIYPVGWCVLVNHKLEGPPR | soluble
9 | MKAETTTGVEELLNELVGRAAGEVGLILFSLGIEGEFTDDQLSLELGIEINEIRKALFALYEIGLADYVRRRDDETGWMEYYWRINYDKALDVLKRELEKTAKKLREKIEAETSTIYYICPNMCVKVSYNDAMELNFTCPRCGAMLDYLDCSKAIEKIEEEVRRIEEILESLDKNSG | not soluble
10 | AIASSAPAPGPAPASLTLWDEEDFQGRRCRLLSDCANVCERGGLPRVRSVKVENGVWVAFEYPDFQGQQFILEKGDYPRWSAWSGSSSHNSNQLLSFRPVLCANHNDSRVTLFEGDNFQGCKFDLVDDYPSLPSMGWASKDVGSLKVSSGAWVAYQYPGYRGYQYVLERDRHSGEFCTYGELGTQAHTGQLQSIRRVQH | soluble
11 | MRQQNGWVLKGGTNIYCRIPGARQTKDLDLYRRDDPTSSTGAAESLVSAMNGYKIGPYIFHVIHPRQSGGVGTVDSERIDVTVIHGINNRLVSFGVDVSGDLEVTGTVEPVTVATSYKVHTEFLPQRFKVYSYPVASQIADKICAMYERHGNTPPGRASTRYHDLYDVALMARELTVSAFDLRSALDTQCRVRNMSLPNHLTIPDESWKDQYPIKARNFGDEQWGLTELDEALRVAGLLINPILNREFKESDRAWNCTALLWE | not soluble
12 | MGSDKIHHHHHHMAHVGLAMHFRRDPNDRRKELTVSRFIEVVHKNAVASRNTADAFIKEMLHYNIAEYVAGGDGRTHPLQPTAATIERFTGWVTAHLRTLDHIDGGDRLGRYLDRPDMLATLQPLIADGLLASKPVREPHQTFSLFIWLNNGGIVMDWLMSGIDPDHAGLERIPTSVVSIGDFAKWLKLSRTHLGRKLRTAEELGSIGWLGQRGHSVMWVSHGFYEEYMTVQAAKLAVVDNAFKACFPPSQGDD | not soluble
13 | SKNPHLPQPVRVTVGPNAPPVFGMFYPDRYMVGVDCILVDGMFVSRSRFEKLGGSLMAKWYRSIRVVDTAEPLGAWLERHNLPVFTGKARQRRQRGAPSTN | soluble
14 | MYFVDRTAVVLKPTARFLEWLKSTDENMPDLTIEQLRANCSVFLVPQFDEPEAVVSYFDERYRQIFEAELAGWDIDKDKWPQDMGLKAFWEFFDIEIHDIVLNMEEAELNITPVFDNMM | soluble
15 | MYYGIKALTVGRGESVRAKITTTIEEALLNKAKALAKQEGLSGANAIIERALELYFTSIQSEVWEKSLSSGWIKKLVLKRDSILYENIKCRKTMENCRPDDYTPESLKAKGWKKV | not soluble
16 | MSLNSSFFKMMEKRSYNRFNQEQKAAITYDMKKHLRIIAGAGSGKTQTICAKAVYLMTQKQVDEERILMITFTRNAANELKKRVDNFSQRKTAVHIGTFHSIFFRIYNEICRKFPEVAMQGIQGDFSKDTAQKVNAVLQQLIRKYNLYIFDQYGEKTIASRLDYWQNMNLSVEEMVQLVKEKYDSIDKNARQPISERLYGLLTELQEQKRSQQLLEFNDVLQNLKSALENEEIQHYIGQKYDYLFIDEFQDTNPLQWEIVKRMTKENRIKLIVVGDDDQSIYGFRGSEPAYIKNFEKEYPTKTLFLLTNYRSRAAIVQGANRLISYNKNDRIPKAMIPAQKEAGVMEAYLFSDTKAESQWLIKQIQTFIQKNGKYKESIILYRSASQTQQLVQSLLKTNIPFVLEADSPYEGIFGIKSFQHFYQKIVHWQTALNLQKKNQAYQQLLRQLMADCYLKKSECDQYFSPKYQNIAVADYILSISPNLKSKSAEIREFEEALRKTDQHQEIYSLVQSYLHLPRIAKEIDQSDQEWIREEVKQHATFRRLQALSQETQATAKELKTRLIAYRQGKLDALCIQSIHKSKGLSYRNVFLIGCNEGSLPYNGATEKKVIDFNEIKAEPVTTIEEERRLFYVAMTRARNRLYLCVPQMKNSRKLKVSRFIKETGSRVKKGEGHHHHHH | soluble
17 | MTFAPGFSGGLSPAYRLGSRRSPSPFSEEVRAEEGPGAGGFSQVFHTPCLCLGTMRWKSVLGLAVLLLASLALAQALTLDLRPYLVKVVEGKEVYEANPLAVRPGDVLEWRLVAENRAQGDLRQVALVIPIPKETYYLEGSAKPLQVGGTIVPPEFSFDGGKTFGRPPLKKRIRVVENGKEVEKEVEVKPEEYTHARWVIPVLSKGDKVMVSLRTIVR | soluble
18 | GSQEQKGDAPTCGICHKTKFADGCGHNCSYCQTKFCARCGGRVSLRSNKVMWVCNLCRKQQE | soluble
19 | SNASYRSTQQITDFTKEILVNGEAVTAFDRQGDLPNVVVTPNFEAGVDQVVDQLAMNDSERDTTAIIGKSLAECEALTKALKARGEQVTLIQTENQRLAPGVIVVPSFLAKGLEFDAVIVWNANQENYQREDERQLLYTICSRAMHELTLVAVGSLSPLLARVNHALYTLNEAK | soluble
20 | MGSDKIHHHHHHMVSLMEHGMLPDAVIRSGIRRLLMKRLQEESCGDTEADRARQREFFEQLSHSPLAMETGAANKQHYELPPDFFSLVLGPRRKYSCCLYPPGVDDLATAEEAMLRLTCQRAGLADGMDILELGCGWGSLTLWMAEHYPDARITAVSNSAPQRQFIQGACRGRGFGNVRVITADMNDFTIEKTFDRVVSVEMFEHMRNYAELLRRIAGWLKDDGRLFVHIFCHRTLAYLFQTDGEDDWMGRYFFTGGIMPSDHLLFYFNDHLAVEDHWRVGGRHYQRTCDGWLERMDTERRKILEIFWDVYEGDAPVWFQRWRVFFMACSELFGYSEGNEWFVSHYLLRKNSAGVLCGNRQKALSFSGVCK | not soluble
21 | ALKPTIYKFRIALSDMNNDYYDSKNLTIALHPSEKPQRMLARILAFCLNAQKDLEFTKGLSTTEEPDLWHVADDQSITHWIEIGEPEPDRIKKASRLAKQVKVYTYNTKAPVWWEKMSGKFSMLPVSVESFDYDAIDMICQHLDRGTNLSVMITGTSIFVDVNDQHVEVTVKELQS | soluble
22 | MSEFSPLRRKILLGGAATAGLSLFPSFSFASQFAETPRKLALSNLHTGEELKTEYFNGRQYQSAELHKLNHLCRDFRRNESIEMDKRLFDQLSAIQNVIGCDTQVQIISGYRSPATNEMLRGKSHGGVAKKSLHMLGKAMDFRLEGVPLAEVRKAALSLKAGGVGYYPGSNFVHIDTGRVRFW | not soluble
23 | MEGRIPPHSLEAEQSVLGAILLDYQVLDEIEGLLPTPEAFYAEAHRKIYAAMQGLRAEGSPVDLVTLAEELSRRGELDGVGGISYLMQLSEATPTAAYAEHYARIVAEKWTLRRLIQAAGEAMRLAYEEAGSLDEILDQAGKRILEVALAQTEVEARSMRELVHETFEHIEALFQNKGETAGVRTGFKELDQLIGTLAPGSLNIIAARPAMGKTAFALTIAQHAALKEGVGVGIYSLEMPAAQLVLRMMCSEARIDMNRVRLGQLSDRDFSRLVDVAGRLSEAPIFIDDTPDLTLMELRARARRLRSQHNVGLIIIDYLQLMSGPGGGQKGENRQQEIAAISRGLKALARELGVPVIALSQLSRAVEARPNKRPMLSDLRESGSIEQDADLVMFIYRDEYYNPHSEKAGIAEIIVGKQRNGPTGTVELQFHAQHVRFNDLAKEP | soluble
24 | MNRIEHYHDWLRDAHAMEKQAESMLESMASRIDNYPELRARIEQHLSETKNQIVQLETILDRNDISRSVIKDSMSKMAALGQSIGGIFPSDEIVKGSISGYVFEQFEIACYTSLLAAAKNAGDTASIPTIEAILNEEKQMADWLIQNIPQTTEKFLIRSETDGVEAKK | soluble

— the DeepSol protein solubility set
